These results are taken from patent US7572589B2, “Diagnosis and treatment of infectious diseases through indel-differentiated proteins” (priority 2001, dated 2009).

Test [1] concerns the target T1, SHP-1 (Homo sapiens, UniProt P29350).
T1 construct: made in house
Conditions: cited from earlier work.

The subject of test [2] is Macrophages infected with L. donovani. Conditions: cells incubated with inhibitor prior to infection; cited from earlier work.
The target in test [3] is T2, SHP-1 (Mus musculus, UniProt P29351).
T2 construct: complexes for delivery to macrophages (approximately 2×10^6); endogenous in cells; host or cells: macrophages (RAW 264.7 named in the materials)
T2 sequence (P29351 whole entry): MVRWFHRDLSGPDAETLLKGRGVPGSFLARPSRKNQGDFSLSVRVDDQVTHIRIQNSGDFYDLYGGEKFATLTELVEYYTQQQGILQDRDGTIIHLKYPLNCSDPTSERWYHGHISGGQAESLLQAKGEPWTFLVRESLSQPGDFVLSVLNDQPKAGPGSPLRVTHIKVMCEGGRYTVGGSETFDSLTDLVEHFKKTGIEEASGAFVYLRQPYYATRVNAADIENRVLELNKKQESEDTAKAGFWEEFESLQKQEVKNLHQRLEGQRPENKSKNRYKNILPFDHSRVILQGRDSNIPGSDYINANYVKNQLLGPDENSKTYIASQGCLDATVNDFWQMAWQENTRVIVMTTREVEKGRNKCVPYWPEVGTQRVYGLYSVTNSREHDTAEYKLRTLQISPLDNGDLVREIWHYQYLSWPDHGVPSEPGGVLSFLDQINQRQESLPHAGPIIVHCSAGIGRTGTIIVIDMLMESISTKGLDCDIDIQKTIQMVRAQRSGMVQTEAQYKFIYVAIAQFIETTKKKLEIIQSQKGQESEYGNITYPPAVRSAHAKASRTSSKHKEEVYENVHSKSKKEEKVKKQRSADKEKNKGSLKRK
Kind of test: SHP-1 phosphatase activity (pNPP) after Profect-1 delivery of purified EF-1α into macrophages. It counts as cell-based, murine. To be noted: purified protein introduced into macrophages. The procedure: Approximately 1 μg of purified EF-1α from leishmania or macrophages or an equivalent amount of BSA were incubated separately with Profect 1™ reagent (Targety Systems, Santee, Calif., USA) in serum free media to prepare protein-Profect-1™ complexes for delivery to macrophages (approximately 2×10^6) according to the manufacturer's instructions. After 2-3 hr of incubation, cells were lysed in buffer C (50 mM Tris [pH 7.5], 1% Triton X-100™ and 0.15M NaCl) containing a cocktail of protease inhibitors for 20 min on ice and incubated with anti-SHP-1 for 2 h end-over-end at 4° C. Immune complexes were recovered using protein A-sepharose and after extensive washing with buffer C, immune complexes were assayed for phosphatase activity using pNPP as a substrate.

The target in test [4] is T1, SHP-1. Kind of test: Binding assay of purified EF-1α with GST-SHP-1 glutathione beads, immunoblot. To be noted: purified proteins, glutathione-sepharose beads. The protocol: (§1) For binding assays, purified EF-1α from either leishmania or macrophages was incubated with 25 μl (packed volume) of glutathione-agarose beads containing equal amounts of GST-SHP-1. Binding was accomplished by mixing in 100 μl of binding buffer (50 mM HEPES [pH 7.5], 0.15 M NaCl, 1 mM EDTA, 1 mM DTT, 0.01% Triton X-100™ and 1% glycerol) for 2 h at 4° C. The beads were collected by centrifugation and washed four times with binding buffer. Bound EF-1α was eluted by boiling beads in Laemmli sample buffer, separated on SDS-PAGE followed by immunoblotting using anti-EF-1α. Binding of EF-1α to calmodulin-agarose was performed essentially as described above for GST-SHP-1 except that binding buffer contained 0.2 mM CaCl2 instead of EDTA. Also, after incubation, non-bound proteins were removed and affinity beads were assayed for SHP-1 phosphatase activity using pNPP as a substrate. Relative phosphatase activity was assessed by measuring changes in absorbance at 405 nm.

In a further test the target is T3, calmodulin (Homo sapiens, UniProt P0DP23).
T3 construct: purchased Sigma Chemical Co. (St. Louis, Mo.)
Kind of test: Binding of purified EF-1α to calmodulin-agarose. Conditions: purified proteins. The protocol:
as §1

T1 sequence (P29350 whole entry): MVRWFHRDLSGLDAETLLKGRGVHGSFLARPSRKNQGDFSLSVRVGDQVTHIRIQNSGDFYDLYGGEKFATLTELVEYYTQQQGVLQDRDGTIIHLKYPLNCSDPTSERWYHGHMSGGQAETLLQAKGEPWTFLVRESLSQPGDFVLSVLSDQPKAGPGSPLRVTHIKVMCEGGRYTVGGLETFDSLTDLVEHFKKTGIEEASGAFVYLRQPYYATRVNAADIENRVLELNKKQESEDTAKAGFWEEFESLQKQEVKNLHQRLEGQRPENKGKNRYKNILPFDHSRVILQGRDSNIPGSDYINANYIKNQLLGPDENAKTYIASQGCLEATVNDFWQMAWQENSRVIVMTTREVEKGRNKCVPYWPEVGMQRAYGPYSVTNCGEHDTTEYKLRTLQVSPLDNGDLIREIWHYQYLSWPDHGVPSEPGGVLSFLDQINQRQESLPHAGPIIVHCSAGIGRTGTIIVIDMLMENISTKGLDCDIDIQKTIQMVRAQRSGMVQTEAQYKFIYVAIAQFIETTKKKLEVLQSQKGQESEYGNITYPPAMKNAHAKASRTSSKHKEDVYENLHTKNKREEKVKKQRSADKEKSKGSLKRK

On to `O.O.O.O.O.O.O.O.O.O=C([O-])[C@@H]1[O][Sb]2([O-])([O][Sb]34([OH])[O][C@H]([C@H](O)CO)[C@H]([O]3)[C@H](C(=O)[O-])[O]4)[O][C@H]([C@H](O)CO)[C@@H]1[O]2.[Na+].[Na+].[Na+]` [sodium stibogluconate], for which the “inhibition of SHP-1” value at SHP-1 [1] is “inhibitor of SHP-1”.

Regarding sodium orthovandate, in test [2], the “phenotype of impaired cell signaling and cell deactivation” value is listed as “reversed”.

B1: macrophage EF-1α: EF-1α purified to near homogeneity from murine macrophages (RAW 264.7) (protein)
chain: GKEKTHINIVVIGHVDSGKSTTTGHLIYKCGGIDKRTIEKFEKEAAEMGKGSFKYAWVLDKLKAERERGITIDISLWKFETSKYYVTIIDAPGHRDFIKNMITGTSQADCAVLIVAAGVGEFEAGISKNGQTREHALLAYTLGVKQLIVGVNKMDSTEPPYSQKRYEEIVKEVSTYIKKIGYNPDTVAFVPISGWNGDNMLEPSANMPWFKGWKVTRKDGSASGTTLLEALDCILPPTRPTDKPLRLPLQDVYKIGGIGTVPVGRVETGVLKPGMVVTFAPVNVTTEVKSVEMHHEALSEALPGDNVGFNVKNVSVKDVRRGNVAGDSKNDPPMEAAGFTAQVIILNHPGQISAGYAPVLDCHTAHIACKFAELKEKIDRRSGKKLEDGPKFLKSGDAAIVDMVPGKPMCVESFSDYPPLGRFAVRDMRQTVAVGVIKAVDKKAAGAGKVTKSAQKAQKAK
Regarding B1, the “activation of SHP-1” value with SHP-1 [3] is given as “activation of SHP-1 was not observed”. In addition, the “binding to GST-SHP-1” value with SHP-1 [4] is reported as “comparatively little binding”. Moreover, the binding to calmodulin result with calmodulin is “bound directly and with similar affinities”.
